Assay results from publication PMC11347664, “KHSRP ameliorates acute liver failure by regulating pre-mRNA splicing through its interaction with SF3B1” (Cell Death & Disease, 2024).

Target: T1, SF3B1-3 (pET15b-SF3B1-3, amino acids 955–1304) (UniProt O75533 955-1304)
T1 construct: SF3B1, amino acids 955–1304, HEAT 11–22 domain; methods are in the supplement; also called HEAT 11–22 domain of SF3B1; source: recombinant protein from pET15b-SF3B1-3
Assay: pull-down; cell-free system; recombinant KHSRP-KH4Q and SF3B1-3; inputs and pulled-down proteins detected by Coomassie staining and Western blotting
Conditions: both partners purified

T1 sequence (O75533 955-1304): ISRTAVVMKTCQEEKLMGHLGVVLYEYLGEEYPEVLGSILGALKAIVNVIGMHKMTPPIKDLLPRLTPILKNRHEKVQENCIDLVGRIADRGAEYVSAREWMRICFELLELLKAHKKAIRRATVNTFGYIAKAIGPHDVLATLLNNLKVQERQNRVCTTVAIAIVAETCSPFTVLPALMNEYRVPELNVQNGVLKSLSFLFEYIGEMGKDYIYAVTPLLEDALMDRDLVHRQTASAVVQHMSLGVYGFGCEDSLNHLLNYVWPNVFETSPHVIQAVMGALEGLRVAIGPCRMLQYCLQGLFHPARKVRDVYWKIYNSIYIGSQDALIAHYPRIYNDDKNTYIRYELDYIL

binding result: binds
B1: KHSRP-KH4Q (pET15b-KHSRP-KH4Q, amino acids 435–710) (domain or fragment, UniProt Q92945 435-710, looked up)
chain: KCGLVIGRGGENVKAINQQTGAFVEISRQLPPNGDPNFKLFIIRGSPQQIDHAKQLIEEKIEGPLCPVGPGPGGPGPAGPMGPFNPGPFNQGPPGAPPHAGGPPPHQYPPQGWGNTYPQWQPPAPHDPSKAAAAAADPNAAWAAYYSHYYQQPPGPVPGPAPAPAAPPAQGEPPQPPPTGQSDYTKAWEEYYKKIGQQPQQPGAPPQQDYTKAWEEYYKKQAQVATGGGPGAPPGSQPDYSAAWAEYYRQQAAYYGQTPGPGGPQPPPTQQGQQQA
notes: methods are in the supplement; also called KH4–Q-rich domain of KHSRP; source: recombinant protein from pET15b-KHSRP-KH4Q
